Here are results for four molecules from patent publication US12168773B2, “Engineered phosphoenolpyruvate carboxylase enzymes” (The Regents of the University of California, priority 2019, dated 2024).

Series [1] has as its system Zea mays PPC1 (ZmPPC1, C4 PEPC). Put plainly: malate dehydrogenase coupled PEPC enzymatic assay, maize C4 PPC1 and engineered variants. In kind it is biochemical. Particulars: for Km: 0-7.5 mM phosphoenolpyruvate, read-out: Km PEP; for Km / Vmax: 25° C, HEPES pH7.5; for increases in catalytic efficiency relative to wt ZmPPC1: Kcat/Km; for activity of C4 PEPC: substitution introduced into maize C4 PEPC (ZmPPC1). The source says: (§1) For both Arabidopsis C3 PPC1 (AtPPC1) and maize C4 PPC1 (ZmPPC1), the entire coding sequence for each was cloned into pET22b, which contains an amino-terminal 6×-HIS tag for protein purification, and expression was driven by the T7 promoter and lac operon. Relevant mutations were introduced by the Stratagene QuikChange mutagenesis kit using PCR amplification. Both wild type and mutant cDNA constructs were sequenced entirely following cloning into pet22b. Proteins were produced by growing transformed E. coli (BL21 CodonPlus) in autoinduction medium at 18° C. for 16 hours. Proteins were isolated by sonication of bacterial cells followed by passage over a nickel sepharose affinity column, elution with imidazole and separation on a GE SUPERDEX HILOAD 200 PG 16/60 all using an AKTA FPLC.
(§2) Enzyme analysis was conducted in vitro using protein that was generated by expression in E. coli using the pET22b vector. For expression, pET22b constructs were transformed into E. coli BL21-DE3 codon plus RIL cells and grown at 37° C. in autoinduction media until reaching an OD=1 after which these were transferred to 18° C. for 18 hours. Samples were collected and lysed by sonication. Protein was purified by passage through a His-trap nickel affinity column on an Akta FPLC and then eluted with 400 mM imidazole. Partially purified protein was then separated on an FPLC equipped with a HiPrep S200 size exclusion column (16/60) after which collected sample was concentrated by centrifugation to a final concentration of 4 mg/ml in 50% glycerol. Samples were stored at −20° C.
(§3) For enzymatic assays, a malate dehydrogenase coupled reaction was conducted with a range of substrate concentrations (0-7.5 mM phosphoenolpyruvate pyruvate) and a range of concentrations of allosteric inhibitor (0-50 mM malate). Assays were monitored using a Victor2 microplate reader at 25° C. Reactions consisted of […] PPC enzyme variants, 50 mM HEPES pH7.5, 10 mM MgCl2, 10 mM KHCO3 (carbonate substrate), 0.2 mM NADH, and 10 units/ml of malate dehydrogenase. Reaction time was 15 minutes and samples were measured on an ˜40 second interval. For measurement, which monitors loss of NADH, excitation wavelength was 340 nM and emission wavelength was 460 nM.

Series [2] concerns Arabidopsis thaliana PPC1 (AtPPC1, C3 PEPC). Nature of the series: malate dehydrogenase coupled PEPC enzymatic assay, Arabidopsis C3 PPC1 and engineered variants. In kind it is biochemical. Particulars: 25° C, HEPES pH7.5.
Text: as §1, §2
as §3, with “nM. From these assays, the enzyme kinetics of Tables 4-1 and 4-2 were determined for each enzyme variant.” for “nM.”

B1: ZmPPC1 G678S: engineered Zea mays PPC1 with G678S substitution (G682S in SEQ ID NO:15) (protein)
chain: MASTKAPGPGEKHHSIDAQLRQLVPGKVSEDDKLIEYDALLVDRFLNILQDLHGPSLREFVQECYEVSADYEGKGDTTKLGELGAKLTGLAPADAILVASSILHMLNLANLAEEVQIAHRRRNSKLKKGGFADEGSATTESDIEETLKRLVSEVGKSPEEVFEALKNQTVDLVFTAHPTQSARRSLLQKNARIRNCLTQLNAKDITDDDKQELDEALQREIQAAFRTDEIRRAQPTPQDEMRYGMSYIHETVWKGVPKFLRRVDTALKNIGINERLPYNVSLIRFSSWMGGDRDGNPRVTPEVTRDVCLLARMMAANLYIDQIEELMFELSMWRCNDELRVRAEELHSSSGSKVTKYYIEFWKQIPPNEPYRVILGHVRDKLYNTRERARHLLASGVSEISAESSFTSIEEFLEPLELCYKSLCDCGDKAIADGSLLDLLRQVFTFGLSLVKLDIRQESERHTDVIDAITTHLGIGSYREWPEDKRQEWLLSELRGKRPLLPPDLPQTDEIADVIGAFHVLAELPPDSFGPYIISMATAPSDVLAVELLQRECGVRQPLPVVPLFERLADLQSAPASVERLFSVDWYMDRIKGKQQVMVGYSDSGKDAGRLSAAWQLYRAQEEMAQVAKRYGVKLTLFHGRGGTVGRGGGPTHLAILSQPPDTINGSIRVTVQGEVIEFCFSEEHLCFQTLQRFTAATLEHGMHPPVSPKPEWRKLMDEMAVVATEEYRSVVVKEARFVEYFRSATPETEYGRMNIGSRPAKRRPGGGITTLRAIPWIFSWTQTRFHLPVWLGVGAAFKFAIDKDVRNFQVLKEMYNEWPFFRVTLDLLEMVFAKGDPGIAGLYDELLVAEELKPFGKQLRDKYVETQQLLLQIAGHKDILEGDPFLKQGLVLRNPYITTLNVFQAYTLKRIRDPNFKVTPQPPLSKEFADENKPAGLVKLNPASEYPPGLEDTLILTMKGIAAGMQNTG
As a reminder, the Km is the substrate concentration at which the rate is half of its maximum. Take B1: in series [1], the “effects of the allosteric inhibitor malate relative to wt ZmPPC1” value is given as “greatly reduce”, the Km was 2660 ± 333 µM, the Vmax came out at 17.74 ± 1.04 units/mg and the “increases in catalytic efficiency relative to wt ZmPPC1” value is ~200%. In addition, in series [1], the “activity of C4 PEPC” value is given as “increased activity”.

B2: ZmPPC1 T7781: engineered Zea mays PPC1 with T778I substitution (T782I in SEQ ID NO:15) (protein)
chain: MASTKAPGPGEKHHSIDAQLRQLVPGKVSEDDKLIEYDALLVDRFLNILQDLHGPSLREFVQECYEVSADYEGKGDTTKLGELGAKLTGLAPADAILVASSILHMLNLANLAEEVQIAHRRRNSKLKKGGFADEGSATTESDIEETLKRLVSEVGKSPEEVFEALKNQTVDLVFTAHPTQSARRSLLQKNARIRNCLTQLNAKDITDDDKQELDEALQREIQAAFRTDEIRRAQPTPQDEMRYGMSYIHETVWKGVPKFLRRVDTALKNIGINERLPYNVSLIRFSSWMGGDRDGNPRVTPEVTRDVCLLARMMAANLYIDQIEELMFELSMWRCNDELRVRAEELHSSSGSKVTKYYIEFWKQIPPNEPYRVILGHVRDKLYNTRERARHLLASGVSEISAESSFTSIEEFLEPLELCYKSLCDCGDKAIADGSLLDLLRQVFTFGLSLVKLDIRQESERHTDVIDAITTHLGIGSYREWPEDKRQEWLLSELRGKRPLLPPDLPQTDEIADVIGAFHVLAELPPDSFGPYIISMATAPSDVLAVELLQRECGVRQPLPVVPLFERLADLQSAPASVERLFSVDWYMDRIKGKQQVMVGYSDSGKDAGRLSAAWQLYRAQEEMAQVAKRYGVKLTLFHGRGGTVGRGGGPTHLAILSQPPDTINGSIRVTVQGEVIEFCFGEEHLCFQTLQRFTAATLEHGMHPPVSPKPEWRKLMDEMAVVATEEYRSVVVKEARFVEYFRSATPETEYGRMNIGSRPAKRRPGGGITTLRAIPWIFSWIQTRFHLPVWLGVGAAFKFAIDKDVRNFQVLKEMYNEWPFFRVTLDLLEMVFAKGDPGIAGLYDELLVAEELKPFGKQLRDKYVETQQLLLQIAGHKDILEGDPFLKQGLVLRNPYITTLNVFQAYTLKRIRDPNFKVTPQPPLSKEFADENKPAGLVKLNPASEYPPGLEDTLILTMKGIAAGMQNTG
On to B2, for which, in series [1], the “effects of the allosteric inhibitor malate relative to wt ZmPPC1” value was “greatly reduce”, the Km was determined as 1190 ± 104 µM, the Vmax is 14.05 ± 0.44 units/mg and the “increases in catalytic efficiency relative to wt ZmPPC1” value is given as ~300%. In addition, in series [1], the “activity of C4 PEPC” value was “increased activity”.

B3: ZmPPC1 wild type: wild type Zea mays PPC1, C4 PEPC, SEQ ID NO:15 (protein)
chain: MASTKAPGPGEKHHSIDAQLRQLVPGKVSEDDKLIEYDALLVDRFLNILQDLHGPSLREFVQECYEVSADYEGKGDTTKLGELGAKLTGLAPADAILVASSILHMLNLANLAEEVQIAHRRRNSKLKKGGFADEGSATTESDIEETLKRLVSEVGKSPEEVFEALKNQTVDLVFTAHPTQSARRSLLQKNARIRNCLTQLNAKDITDDDKQELDEALQREIQAAFRTDEIRRAQPTPQDEMRYGMSYIHETVWKGVPKFLRRVDTALKNIGINERLPYNVSLIRFSSWMGGDRDGNPRVTPEVTRDVCLLARMMAANLYIDQIEELMFELSMWRCNDELRVRAEELHSSSGSKVTKYYIEFWKQIPPNEPYRVILGHVRDKLYNTRERARHLLASGVSEISAESSFTSIEEFLEPLELCYKSLCDCGDKAIADGSLLDLLRQVFTFGLSLVKLDIRQESERHTDVIDAITTHLGIGSYREWPEDKRQEWLLSELRGKRPLLPPDLPQTDEIADVIGAFHVLAELPPDSFGPYIISMATAPSDVLAVELLQRECGVRQPLPVVPLFERLADLQSAPASVERLFSVDWYMDRIKGKQQVMVGYSDSGKDAGRLSAAWQLYRAQEEMAQVAKRYGVKLTLFHGRGGTVGRGGGPTHLAILSQPPDTINGSIRVTVQGEVIEFCFGEEHLCFQTLQRFTAATLEHGMHPPVSPKPEWRKLMDEMAVVATEEYRSVVVKEARFVEYFRSATPETEYGRMNIGSRPAKRRPGGGITTLRAIPWIFSWTQTRFHLPVWLGVGAAFKFAIDKDVRNFQVLKEMYNEWPFFRVTLDLLEMVFAKGDPGIAGLYDELLVAEELKPFGKQLRDKYVETQQLLLQIAGHKDILEGDPFLKQGLVLRNPYITTLNVFQAYTLKRIRDPNFKVTPQPPLSKEFADENKPAGLVKLNPASEYPPGLEDTLILTMKGIAAGMQNTG
Take B3: in series [1], the Km was 4620 ± 406 µM and the Vmax is 17.56 ± 2.35 units/mg. For the same molecule, the “effect of malate on enzyme” value in series [1] (at 50 mM malate) is listed as “completely inhibited”.

B4: AtPPC1 A651V: engineered Arabidopsis thaliana PPC1 with A651V substitution (alr-108), SEQ ID NO:10 (protein)
chain: MANRKLEKMASIDVHLRQLVPGKVSEDDKLVEYDALLLDRFLDILQDLHGEDLRETVQELYEHSAEYEGKHEPKKLEELGSVLTSLDPGDSIVIAKAFSHMLNLANLAEEVQIAYRRRIKKLKKGDFVDESSATTESDLEETFKKLVGDLNKSPEEIFDALKNQTVDLVLTAHPTQSVRRSLLQKHGRIRDCLAQLYAKDITPDDKQELDEALQREIQAAFRTDEIKRTPPTPQDEMRAGMSYFHETIWKGVPKFLRRVDTALKNIGIEERVPYNAPLIQFSSWMGGDRDGNPRVTPEVTRDVCLLARMMAATMYFNQIEDLMFEMSMWRCNDELRARADEVHANSRKDAAKHYIEFWKSIPTTEPYRVILGDVRDKLYHTRERAHQLLSNGHSDVPVEATFINLEQFLEPLELCYRSLCSCGDRPIADGSLLDFLRQVSTFGLSLVRLDIRQESDRHTDVLDAITTHLDIGSYREWSEERRQEWLLSELSGKRPLFGSDLPKTEEIADVLDTFHVIAELPADSFGAYIISMATAPSDVLAVELLQRECRVKQPLRVVPLFEKLADLEAAPAAVARLFSVDWYKNRINGKQEVMIGYSDSGKDAGRLSAAWQLYKAQEELVKVAKEYGVKLTMFHGRGGTVGRGGGPTHLVILSQPPDTINGSLRVTVQGEVIEQSFGEEHLCFRTLQRFTAATLEHGMRPPISPKPEWRALLDEMAVVATEEYRSVVFQEPRFVEYFRLATPELEYGRMNIGSRPSKRKPSGGIESLRAIPWIFAWTQTRFHLPVWLGFGSAIRHVIEKDVRNLHMLQDMYQHWPFFRVTIDLIEMVFAKGDPGIAALYDKLLVSEELWPFGEKLRANFEETKKLILQTAGHKDLLEGDPYLKQRLRLRDSYITTLNVCQAYTLKRIRDPSYHVTLRPHISKEIAESSKPAKELIELNPTSEYAPGLEDTLILTMKGIAAGLQNTG
As to B4, the Km in series [2] (0-7.5 mM phosphoenolpyruvate, read-out: Km PEP) is 956 ± 40 µM. Also, the Vmax in series [2] is 15.776 ± 0.25 units/mg.
